# In the RNAGym collection of RNA variant scans (doi:10.1073/pnas.2313332121):
# This sample holds only a part of the variants without activity.
# B1: TPR 5TU (parent)
# chain: GGAUCUUCUCGAUCUAACAAAAAAGACAAAUCUGCCACAAAGCUUGAGAGCAUCUUCGGAUGCAGAGGCGGCAGCCUUCGGUGGCGCGAUAGCGCCAACGUUCUCAACUAUGACACGCAAAACGCGUGCUCCGUUGAAUGGAGUUUAUCAUG
# Variants of: B1
# Assay: polymerase ribozyme fitness, log enrichment relative to wild type (log ratio); higher = more active; in vitro selection for triplet polymerase activity
# Procedure, shortened: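 Mutant libraries were PCR-built and transcribed for each subunit of a heterodimeric triplet polymerase ribozyme and selected for one round in triplicate at −7 °C, frozen, before gel excision of extended constructs and streptavidin-bead capture. Input and output libraries were Illumina-sequenced, keeping genotypes with ≥10 input reads and ≥1 read per output. Fitness is a logarithmic ratio of genotype to wild-type enrichment, in base 2, using inverse-variance-weighted replicate averages.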
row,Variant,polymerase ribozyme fitness (log ratio)
1,C5U C75U C85U,1.35
2,C5U C18G G59A C93U C132U,-2.33
3,U4G G25U G48U U55G G84C A115C U134C,≤ -4.2
4,C5A A26U G50A C51U A106C U139G,≤ -4.2
5,U4A C10U A23C C57U G81A G92C A115C C118A,≤ -4.2
6,U4C G58C,0.358
7,C5G U6A A28U A30U A39C U45C U53A C57A C96G A115U C129U G140C,-3.81
8,C5A C8U U9G C51U C85U A106U A107C C118A,≤ -4.2
9,U4A C8A C43A A64U C93A U146C,≤ -4.2
10,U4A U56A,-0.0652
11,U4A C35A U53C C96G A122U,≤ -4.2
12,C5G U15G A49U A91U C116A C149G,≤ -4.2
13,C5G G84A A147C,-0.43
14,C5G G50U G84U,-1.65
15,U4G A47C C51U G80A G84A G94U A97U,≤ -4.2
16,C5G A41C U134C,-1.61
17,C5A C57U C95U C103G,-2.24
18,U4A U61A G94A,-1.99
19,C5G U6G U61C C85U,-3.57
20,C5U A19G U135C G141U,-3.73
21,U4G G140C,≤ -4.2
22,C5A C85U C95G,-1.93
23,A3U U6G G48A A107G,≤ -4.2
24,U4A G94U U102C,-3.03

row,Variant,polymerase ribozyme fitness (log ratio)
1,C5U C35U U77G C85G A89U A110C U144G,≤ -4.2
2,C5G A24C A28C U55G G58A C63U C105G A137G U151G,≤ -4.2
3,C5A C75U C87U,0.223
4,C5G C14A G48U U53A G74A G80C U82G C96G C118G G133U,≤ -4.2
5,C5A C76U C93A,-1.5
6,C5G G84A C96A,-1.4
7,U4C A20U A64C C85G U101C C118U,≤ -4.2
8,C5G A17G C93G C95U,-3.96
9,U4G G50C C118U,≤ -4.2
10,U6A A22U C27A C54A C57A C76U U78C C87U G128C A137G G141C,≤ -4.2
11,U4A U31G A37C G86C C123G,≤ -4.2
12,U6A A12U U15C A137C,-3.12
13,C5G A21G C57G C93U A115U,-3.31
14,C5U C14U A23C U90C C96A C103G G124U,≤ -4.2
15,C5U A22U A98G A122U,0.571
16,C5A A24U A40C A52C,-0.908
17,U4C U55A G86U,-2.08
18,U4G U61A G88A,≤ -4.2
19,U4A A16U A17U A30C A39G A49U C87G A89C G133C U139C,≤ -4.2
20,A3U U33A C43U G84A C85A G140C U146C,≤ -4.2
21,A3U G68A U77A C85G C149G,≤ -4.2
22,C5G C18G A41C G152U,-3.98
23,U4C C8A G59A,-4.18
24,C5A A64G A66G U134G,≤ -4.2

row,Variant,polymerase ribozyme fitness (log ratio)
1,C5G A37U G83C C129A U145A,≤ -4.2
2,U4C C87A A89U C129G,≤ -4.2
3,C5A U53A C93U C125A G152A,-4.17
4,C5U A41U G50A,-2.81
5,A3U G74A C75G A91U A120U C132U,≤ -4.2
6,U4A A52G C57A G126U,-1.17
7,C5G G68C C131U C132G U145G A150C,≤ -4.2
8,U4G C57G,-0.334
9,U4A A12C G50A G84U G141U,-3.8
10,U4A G84A C99U U109G A120C G152C,-3.96
11,C5G A21U G59A,-0.0281
12,C5G C108U,-3.65
13,U4A G136A,0.134
14,U4A G84U C85U G117U U145C,-2.29
15,C5A G86U G141A,-1.49
16,A3U U15A U82C G86A A91G,-3.4
17,C5A A30U U77A G92U,≤ -4.2
18,C5G G81A A98G A121U G143C,-2.76
19,C5A A29U A52C G74A A97G,≤ -4.2
20,C5A U6C A30U A91U C118A A138G,≤ -4.2
21,C5U U7G C14G A21C U56G C57A G58C C103A A142U U145C,≤ -4.2
22,C5A G86U G92U C116G,-0.979
23,C5U A21G U139C U146A,-3.99
24,U4G A12C U15A G80C U90G G126C G143C,≤ -4.2

row,Variant,polymerase ribozyme fitness (log ratio)
1,U4A C18G A19U U31A U135C,-4.1
2,C5A A22U A24U C27G A39C C57U A60U C85G,≤ -4.2
3,A3U G58A U130A,-3.64
4,C5G A52C C85U,-2.14
5,C5A A12G G84A G88A A97U C116A,-3.84
6,C5G U6C C57A C85U,-1.26
7,U4G A73G G92U A107U A122U,-3.96
8,C5G A37U C43U A98G A121G,≤ -4.2
9,C5U A20G A49U G86U,-3.71
10,C5A U55A G58C G68U G81A A91U C96A,≤ -4.2
11,C5G C10U C57U C95U,-2.04
12,C5A A24U C36U G86A C87A U90G C93A,≤ -4.2
13,U4G C38U G86C C105G A138C,≤ -4.2
14,C5G C85U,-1.17
15,C5G C85G,-1.46
16,C5U U6C C10U G83C,-2.89
17,U4G A23U G68A U127A,≤ -4.2
18,C5G C51A,-1.01
19,U4C A52G G59U U145G,-1.5
20,C5A C14G G59A C85A C118G U139A,≤ -4.2
21,C5G U31A A147C,-0.56
22,C5A A52U G83A,-3.03
23,A3U C108G A121U,≤ -4.2
24,C5A G42C G84C C85A G86A G92C,≤ -4.2

row,Variant,polymerase ribozyme fitness (log ratio)
1,C5G U55A C85U C116U,-1.06
2,C5U C57U C87A A91C,≤ -4.2
3,U4A U6A A40U G46C C96A C118A,-3.94
4,C5U U31C A37U C76G U109C U135C,≤ -4.2
5,C5G G48A U61A C99G C132G G133U A142C,≤ -4.2
6,C5A G34A,0.15
7,C5G U55G A73U,-3.69
8,C5U A21U G84A C131A,-2.96
9,U4C C75A C85G C99G U145G A147U,≤ -4.2
10,U6A A17C A52U G84U A89C G141A,-3.87
11,U4G C87A A98G U130G,≤ -4.2
12,C5G C76U G84U A113U A122U,-4
13,U4C U56G G83A C87A,≤ -4.2
14,C5A C35A C38U G74U C87A U148A,≤ -4.2
15,C5A C96A G143C,-3.53
16,C5A G42A A97G U101G C103G A110G G140U,-3.6
17,A3U U135G,-4.19
18,C5U U13G A22U U55A G65U G70U C87A C95U A98G A137C G141A G143C,≤ -4.2
19,U4G A22U U148C,-3.08
20,U4G G48A U77G G83C U135A,≤ -4.2
21,C5G C63A,0.429
22,C5G A20U U33G A39C U55G C57A A91G A138C,≤ -4.2
23,U4C A24U U61A,-1.7
24,C5A C57A C76U G81A G92C C132U,-2.21

row,Variant,polymerase ribozyme fitness (log ratio)
1,U4G A21C U56G C85U G124U,-1.58
2,U4G A26G U33A C54G G86A G88U U90G,≤ -4.2
3,A3U U144G,0.419
4,U4C C36G G50A C51A C75A G83A G112U C116A,≤ -4.2
5,A3U U56A G83A C85U A91G C95U C99A U144G,≤ -4.2
6,C5U C51A G117C,-2.16
7,U4C C8U A22U G50U C54U A107U C116G,≤ -4.2
8,C5G G50C A122U C125U,-3.46
9,C5G U135C,-2.4
10,C5U C14G G59C C63U C85U U101G,-3.47
11,A3U C96U,-0.0857
12,C5G A20C C32A G50C G124C G141C,≤ -4.2
13,C5G G124C,-0.88
14,A3U G62U,-0.505
15,C5G G86U,-2.77
16,U6A A12U A20U A41U A89C A120U,-3.91
17,C5G C43U A73U G92U U134A U144C,≤ -4.2
18,U4A C8U A29C A41C G58A C75A C79U G83A,≤ -4.2
19,U4A A66C A89U C93A C125G G143A,≤ -4.2
20,C5U C14U C38A C57A A66U G67A G84U A110G,≤ -4.2
21,C5A G11U A21C C54U C57A C87U,-1.42
22,C5A U31C C36A G62C A66G C85G U104A,≤ -4.2
23,A3U G59U,-0.0606
24,U4G A30G C32A C85A G141C,≤ -4.2

row,Variant,polymerase ribozyme fitness (log ratio)
1,C5A G58C A60G G92A A121U,-1.56
2,C5G U77C C87G U134G,≤ -4.2
3,C5U C99U,0.209
4,C5G G141A,0.249
5,U4C C18U U53A A73G U134C,-2.31
6,U6A A20C A49U A52C C79U C93A C118G,≤ -4.2
7,C5A A24C G80C C149G,≤ -4.2
8,A3U G50U U145C,-0.472
9,C5U A19G A21G A29G C87G C95G,≤ -4.2
10,A3U G83A A119G G141C,-1.17
11,C5G A12U C27G A49C C54U U61A C93G C95A A119G U134A A150C,≤ -4.2
12,U4G G46A,-0.673
13,U4A C27U C38U C51U A106G U109A,-3.72
14,U4A C76A C93A A115G G124C C149U,≤ -4.2
15,C5A G11C G50U G58C C85A,-2.8
16,U4G C10A U56A G71C G84C,≤ -4.2
17,C5G G50A C87U,-2.86
18,U4A U7A G42C G48C A66C G67A C72U U101G,≤ -4.2
19,C5A C10G C85A C118G,-3.84
20,U6A A17G C27U A66U U145A,≤ -4.2
21,U4G C85U U134G U145G,-2.85
22,A3U C93U G141A U146G,-2.5
23,C5G C18G G48U U53A C103G,-3.62
